Results reported in patent publication US20200255474A1.

Biological target: HA-tagged PHB2 alanine mutant at Ser39 (S39A) (human) (UniProt Q99623)
Assay: anti-HA IP of nuclear extracts of transfected SK-BR-3 cells after 1 µM stERAP, immunoblot

reduction rate of binding against WT: 82%
Substance: NcoR, O75376 1-2440
